Results: the DeepSol protein solubility set

Assay: soluble on expression in E. coli; label from the status in PepcDB or PDB records

Sequence | soluble on expression in E. coli
GGVVVTPRAPYIHDLDGLPMAWDLVEWPIYTYRAKNDARLAIVSSSRGCKQQCSFCSQQLFWSQSWRARSAENFVAELEMLHTVHGVQVAMLSDEIPTFDRQRWVRILDLMIERQVPVKLLMETRVDDILRDADIMDRYREGGVEHIYVGVEAGTQETLDLFKKDTQVEQSKQAIDLINNADIVSETSFVLGMPDDTPESIAQTIELAKHYNPDMAFFLAIAPWPYAELYPQLEEYVATKDYRKYNLVEPVIKPKHMTLEELERQLGKASQQFFMH | not soluble
MGSDKIHHHHHHMHEPVTRILVVATNAPVPGLVAAVKQGFHQRVDYLELAERFDNRHVDYGIVRPNRMLERLEGITRFDLRLASQVNQIVRSARYQAVISLSERVGIPLALMLPQTVRHLVIFHHGMSARKLQLIRTLHLQHRWDIVAAISEAEAKGMRQALGLPAERVVALHTPVDTAFYQPQPGRQQASVVQSLGLSHRDYPTLIRAMRRLPHIPCHLRVGSSWISGRSGHEREVLPANISLQPFVPPVQLRTCYQQSRIVVVPIKASTQWSAGCTSVQAAQAMGRPVIATRRPGLAEYVDEGRTALLVEPGDADGMADAIATLWENPDRAERMGQAGRQLMEERFTIEQWLDRVVELTHKMMDWPARRSTSTMTGSAV | not soluble
MGSDKIHHHHHHMKKPFLHSESAADVGMEIQQSYDRLLETTRKWIDILHFDPLLETGLTPRDIVWRKNKSRLYRYVNHKGYKHRTPILMLYALINKAYILDLRPGMSLVEYLVDQGFDVYLLDWGEFDWEDRDLSFSQLIVDYISRAVYKVCQYSNVNELSILGYCMGGTMATMYASLYPQPRIKNMIYVAAPIDFEDAGLSSIWLKASVFDVDKVTDTFSLIPKEFVDLGLKMLNPVNNFVATYTRLWKAIDEGVSIEAWKALNKWVDDNINFPGKAYREWVKYLYQENALVKDEFIINGRKVVLSNIDAALLVLTGKTDHIVLPQQSTPILELSSSQDKTNLQYPVGHGGLVFGSRARNEVYPTIAEWLAQRS | not soluble
SDERDVLWVGVCAMPKKVESEPMQRILAALTSSRVAHFEPMIFDAKTLFERPIHKWPVCDALIAFHSEGFPLERAIAYAELRRPYCLNGLREQRMLLDRSKVYEVLARERVPVPRHIVVRHDGADVGRTDTRFVEHDDYIEYCGERLFKPFVEKPIDAEDHRVCIYYARPLYGRRRLFRKTANQSSVFEPGWRRVRREGAFIYEEFIPSEHQSDIKVYAVGPEYAYAERRKSPVVDGIVERNAHGKELRFPVELSTAERCVAATITAAFRQFVCGFDLIRHADGNAFYVNDVNGFSFVKGSQSYYESCGRILAEHLARECARSAAVDGE | soluble
HHHHHHHMTAPAADDRIDEIERAITKSRRYQTVAPATVRRLARAALVAARGDVPDAVKRTKRGLHEIYGAFLPPSPPNYAALLRHLDSAVDAGDDEAVRAALLRAMSVHISTRERLPHLDEFYRELFRHLPRPNTLRDLACGLNPLAAPWMGLPAETVYIASDIDARLVGFVDEALTRLNVPHRTNVADLLEDRLDEPADVTLLLKTLPCLETQQRGSGWEVIDIVNSPNIVVTFPTKSLGQRSKGMFQNYSQSFESQARERSCRIQRLEIGNELIYVIQK | soluble
MTLTMGFIGFGKSANRYHLPYLKTRNNIKVKTIFVRQINEELAAPYEERGVYFTTDLDELLNDKEIQVVTICTPAHTHYELAKKVILAGKSVIVEKPFCDTVEHAKELLALGREKGVVVMPYQNRRFDGDFLAVKQVVEQGFLGDIIEIESHIDYFRPGSITHEAPKEEGSFYSLGIHTMDRMISLFGRPNTVTYDIRNNEVEGAVDNYFDVGLHYGNQLKIKLKTNHIVAKDYPRFIVHGTNGSFIKYGEDQQENDLKAGIMPESAGFGEDSPMYYGIAKYRNANGDWIEKQIKTPLGDYGRFYDAAYDTIVNGAPKLVKDEEAVTNIEILENGFAAPSPSVYKLEALHLNELEHHHHHH | soluble
MMFKNFPFFKGKKDTSFDHLVEEVKKGYIPEHIAIIMDGNGRWAKRRAMPRIAGHHEGMQVVKKITKFASKLNVKVLTLYAFSTENWKRPKKEVDYLMQLPEEFLGTFLPELIEENVQVRVIGQQDRLPTHTRRAMEKAMEETKENTGLILNFALNYGSRDEIVSAVQHMMKDSEEGKVRVEDVSEEMLSSYLMTSSLPDPELLIRTSGELRISNFMLWQIAYSEFWFTDVYWPDFTEEHLLNAITDFQHRGRRFGGV | not soluble
MLLAFKAKIALAALAGFVTPLAVTPLVIDHGDAALDGQQAMVEIAPGAMDYRLPGEFTRDGRQIEAPRTKLQFDRPLSIMLHQVSAADYQRCVDDGACHPMPAATAVRADRPAVQVSWQDATTYADWLSRKTGAHYRLPTDAEWAFAAGSKFKDDGLALDSDDPSVRWIARYERESDRDNLSAALRSFGGFGANERGLLDLSGNVWEWTTTCFDRSAIDAAGRPQAQTANCGVRVAEGLHRAYVSDFIRDAKAGGCSAGLPPIHLGFRLVREPAAPLARLRGQLDRVVTAAGILEHHHHHH | not soluble
MGSDKIHHHHHHMSFEVTFDGMRYSCVNCAYCCSCKNWRVFLSYFDMMRLKGYENYIEKSNSNYEHVLALRNGKCGLIENNLCRIQLEKSYDTKPAMCRLFPFSFMVKWNGDLLLILKHYCGGVQVGKCSKKTIKHAIECCEELYHDQLSEFSLDFAERSDKTSLNEKTEICWEERAELGKYFFKIKKFDSFSEKYSEIFSEDISDSIEKLKSKNSCFDEKTQKLREKETLRYMYELNKREHFRKMSFKKELDNLINVGIIIDDYKDLLKGEGAVDSKLLLN | not soluble
MDWKITIFTYNLAMKASDSEAVHNMLNGMIDDHTHLVAIGLQEVAHSETIGGAVLTWATTIASWMNTNGRMVLLAKTFQATNQVLIFGRKQLIGQIKRIDYRFQRNTMGGLTGHKGSIGVRLQLASPYSIVFVDSHFIHGPENYGKRVEQYHTNRNCSFPEDKSVRAAFWFGDFNFRVEEDVNTVIRKIKNGTHLELLDTREQLKRALVERDAFIGFHEQPVTFEPTYRVTVGTTEQDGKRVPSWTDRILYKGDGITGLSYTNNKKAVASDHLPVVAMFRVTAPAAPKPQWEVIFEHLPTWYTSIPLVGRFQVNELYYKENGSYRDWIGVFPSSINDCTTATNWIYAATCFEQVIEGSKFLACEFNNIPAGNYRLGYFSCHLHCLVGLSKVFQIVEQP | not soluble
MIILNIPLFKGLTLEQIEDMKNKHCMTEKKYKKNSFIFRAGDIVHEIGIVLEGSINIEMIDMWDNKSILSNIDVGQIFAESYALCNEPMMVDAVATKDSTILMLNMRQIFAPINNSASWYNTFTYNLLVLSTRKNLTLSTRIFCTSSKSVRGRVLTYLSNQSIKHNNTEFQIPFNRQQMADYLNLDRSALSKELGKMQDEGIITFNKNRFKLNINYDSEF | not soluble
MKKEIIVYTISDSLGETSQKLLAAASAQYPDISFLNRYNFSFVTTEEELLEILKDALKDKALVVSTLVSKQLITAAKEFSERTGLLYLDLMAPFFELIQAKAGVDPIEEPGRRHQLDRAYFDKISAIEFAVKYDDGKNPQGFLDSDILLLGVSRTSKTPVSMYLANQGYRVSNLPLIPEVPLPPILEEMDPQKMIGLVCSPETLGQIRSSRLASLGLGNETSYTNVERIEQELAYAEEIFAKYGIPVIDVTAKSVEETAFLIKEKLDERN | not soluble
IMIRTDRYGVITYANEKFCEILKYDKEELIGQRFDILNSHYHAQRFFDIMWETISTGNVWNDEIRNKAKDGSYVWLDTTIIPVLNDEHVPNQYIAIYTDLS | not soluble
MPITSTTPEPGIVAVTVDYPPVNAIPSKAWFDLADAVTAAGANSDTRAVILRAEGRGFNAGVDIKEMQRTEGFTALIDANRGCFAAFRAVYECAVPVIAAVNGFCVGGGIGLVGNSDVIVASEDATFGLPEVERGALGAATHLSRLVPQHLMRRLFFTAATVDAATLQHFGSVHEVVSRDQLDEAALRVARDIAAKDTRVIRAAKEALNFIDVQRVNASYRMEQGFTFELNLAGVADEHRDAFVKKS | not soluble
GPGSMGCLPPDDLGPFVSDHVDVNEAEPVPLSDEDLDLLVRYSLLPTDVVREAWAVFNHYRVVECLRAQQRHYAMTGHLPQKSTVSMSARPFPVAECGGKLFTTPVRAASGDCNAVKEEEKAPVSPRDCVTGENSECRKEEVEVAVLGAEGLRQFFEDTGAPIPTLEVTSFLRRMSQPPVEYLLYQRALEEKLTGAAAAAAPPREESPGVGQRKKSPQTDQSKHNKGQSVGRGQRPNNNTKSLNILVDDHIDLLEEQRGSGGETVTFPLFLYILSNAELGKNFTADVRESEINTLFRTLDVDGDGVVSVDDIQRLLEERCSLGDTLYEDRDIRYLRGMNLTELKAALRECDVDEDGAVRLNDFRSVLSS | soluble
